{"source": "paper PMC10629159", "experiment": "BioID2 proximity profile; Myc immunofluorescence", "details": "glycan lost; control: EMP3 WT bait"}
{"protein": "Epithelial membrane protein 3 (EMP3): N47A (protein) parent chain: MSLLLLVVSALHILILILLFVATLDKSWWTLPGKESLNLWYDCTWNNDTKTWACSNVSENGWLKAVQVLMVLSLILCCLSFILFMFQLYTMRRGGLFYATGLCQLCTSVAVFTGALIYAIHAEEILEKHPRGGSFGYCFALAWVAFPLALVSGIIYIHLRKRE", "values": [{"measurement": "localisation_or_trafficking", "result": "no change"}]}
